In article PMC6461108 (2019):

Target: S-peptide S-peptide (Bos taurus, UniProt P61823)
Experiment: ITC

Chain of S-peptide S-peptide (P61823 27-46): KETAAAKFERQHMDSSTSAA

Kd: 130 nM
B1: RNase S-protein S-protein (protein)
chain: SSSNYCNQMMKSRNLTKDRCKPVNTFVHESLADVQAVCSQKNVACKNGQTNCYQSYSTMSITDCRETGSSKYPNCAYKTTQANKHIIVACEGNPYVPVHFDASV
